Measured values from article PMC3520155.

Target: HA-tagged full-length pebble (Pbl) (Drosophila)
Assay: co-IP

percent reduction in binding against wild-type ICD [%] | Substance
33 | Sema-1a ICD[36G/52A] (domain or fragment)
44 | Sema-1a ICD[Δ31–60] (domain or fragment)
